# Assay results taken from patent US11795454B2, “Targeted delivery system” (Cedars-Sinai Medical Center, priority 2009, dated 2023).
# “Also recorded” adds a separate entry of the source.
# Tests used:
# U87 human glioma tumors = system: U87 human glioma tumors
# Method: (§1) FIG. 29A, Live mouse imaging of HerDox at indicated time points after injection. Arrows, Tumors. 29B-29C, Comparative biodistribution of HerDox and Dox in tissues harvested at 3 h post-injection. FIG. 29B, Imaging of biodistribution in harvested tissues. Pseudocolored FI corresponds to the color bar. Max, highest FI. FIG. 29C, Quantification of HerDox and Dox biodistribution, showing Dox FI/tissue. FIG. 29D. Comparative pharmacokinetics of HerDox and Dox in mice with tumors expressing differential HER2. Tissues were harvested from independently injected mice euthanized at indicated time points after injection and FI/tissue acquired using a small animal imaging system as described herein.
# (§2) Heart rate and body temperature were monitored. […] Three beats were averaged for each measurement.
# A customized macro-illumination and detection system was used for in vivo and tissue imaging. Dox was excited with the 488 nm line of a Coherent Innova ArKr laser. […] Fluorescence light was collected via a telecentric lens (Melles-Griot 59LGG925 base lens with a 59LGL428 attachment lens) that can operate at f/#2, has a magnification of 0.9, working distance of 257 mm and a depth of field of 81.5 mm. […] ImageJ was used to calculate average fluorescence intensities of the overall region of each selected tissue. […]
# MDA-MB-435 tumors [1] = test: Therapeutic efficacy in vivo, daily i.v. injections for 7 days; parameters: species or system mouse; settings: for tumor growth: 0.004 mg/kg Dox equivalent, daily i.v. for seven days
# U251 human glioma cells = test: Targeted glioma cell death in vitro; assay type: cell-based; settings: single dose
# Method: All treatments, N=3. FIG. 27A. Comparing cytotoxicity to HER2+ (MDAMB-435) and HER2− (MDA-MB-231) cells in separate cultures. Left, Relative survival (as % of untreated cells) on day 3 of treatment. Right, Micrograph of live cells after treatment. Control, mock (HBS) treatment. FIG. 27B, Receptor specificity of cytotoxicity. […] FIG. 27C, Toxicity to cells displaying differential HER2. Cytotoxicities from HerDox titrations were assessed on each cell line by metabolic assay and confirmed by crystal violet stain on day 3 of treatment. CD50 values (shown in log scale) were determined by non-linear regression analyses of HerDox killing curves using GraphPad Prism. The relative HER2 level of each cell line is shown next to each CD50 value. FIG. 27D, Targeting in a mixed MDA-MB-435(HER2+,GFP−)/MDA-MB-231(HER2−,GFP+) cell culture. Survival was determined by calculating the relative doubling time (DT) of experimental (exp) cells normalized by mock-treated (con) cells based on crystal violet stains (total cells) and GFP fluorescence (MDAMB-231 cells), and applying DTMDA-MB-435=DTTotal-DTMDA-MB-231 as previously described. Relative survival is shown for Day 2 of treatment. […] U251 cells were treated once with the indicated HerDox (and competitive inhibitor where indicated) or Dox doses and measured for cell survival at the indicated time points after treatment. * P<0.05 compared to Mock. […]
# MDA-MB-435 (HER2+) cells = test: HerDox targeted toxicity in vitro, separate cultures; assay type: cell-based, human; settings: MDA-MB-435, day 3
# Method: All treatments, N=3. FIG. 27A. Comparing cytotoxicity to HER2+ (MDAMB-435) and HER2− (MDA-MB-231) cells in separate cultures. Left, Relative survival (as % of untreated cells) on day 3 of treatment. Right, Micrograph of live cells after treatment. Control, mock (HBS) treatment. FIG. 27B, Receptor specificity of cytotoxicity. […] FIG. 27C, Toxicity to cells displaying differential HER2. Cytotoxicities from HerDox titrations were assessed on each cell line by metabolic assay and confirmed by crystal violet stain on day 3 of treatment. CD50 values (shown in log scale) were determined by non-linear regression analyses of HerDox killing curves using GraphPad Prism. The relative HER2 level of each cell line is shown next to each CD50 value. FIG. 27D, Targeting in a mixed MDA-MB-435(HER2+,GFP−)/MDA-MB-231(HER2−,GFP+) cell culture. Survival was determined by calculating the relative doubling time (DT) of experimental (exp) cells normalized by mock-treated (con) cells based on crystal violet stains (total cells) and GFP fluorescence (MDAMB-231 cells), and applying DTMDA-MB-435=DTTotal-DTMDA-MB-231 as previously described. Relative survival is shown for Day 2 of treatment. FIG. 27E, Targeted glioma cell death in vitro. U251 cells were treated once with the indicated HerDox (and competitive inhibitor where indicated) or Dox doses and measured for cell survival at the indicated time points after treatment. * P<0.05 compared to Mock.
# For all in vitro treatments, cell lines were grown for ˜36 h after plating (104/well in 96-well dishes) to allow receptor re-expression, followed by media replacement with new media containing indicated constructs in reduced volume at the indicated final molarities for 4 h with rocking, followed by supplementation with additional media and continued growth for the indicated time periods. Except for the experiments performed on the U251 glioma cells (which received a one-time treatment), cells received these treatments daily while separate sets of wells were assessed for cell death by either metabolic assay (CellTiter Promega Corporation, Madison, WI, USA) or crystal violet stain each day. Where indicated, cells received competitive inhibitor (eHRG) at 10× molar excess for 30 min-1 h at 4° C. before treatment. Treatment of mixed (HER2+/HER2−) cell cultures with HerDox or Dox (0.5 uM), and cell surface receptor subunit level determination were performed as previously described.
# MDA-MB-435 tumors [2] = test: HerDox/Dox tumor targeting, biodistribution and pharmacokinetics by fluorescence imaging
# Method: Tumor-bearing mice were injected with 0.02 mg/kg (final Dox dose) of HerDox or Dox via the tail vein and imaged with a custom small animal imager. FIG. 19A, Imaging of live mice after TV delivery of HerDox. Time points are shown as minutes after injection. Tumors are indicated by arrows. FIG. 19B, Imaging of tumors and tissues harvested at 3 h after injection of HerDox or Dox. Fluorescence signal from Dox is pseudo-colored according to the color bar, with a shift toward 100 indicating high fluorescence intensity.
# as §1
# Mice received a single tail vein injection of Dox alone or the complex (HerDox) (0.02 mg/kg with respect to Dox conc) and were imaged live using a customized macro-illumination and detection system.
# as §2
# A customized macro-illumination and detection system was used for in vivo and tissue imaging. Dox was excited with the 488 nm line of a Coherent Innova ArKr laser. Laser light (300 mW) was directed into a light-tight box via mirrors and expanded by an engineered circular tophat diffuser (Thorlabs ED1-C20) to a uniform circular beam of approximately 15 cm in diameter. The incidence angle to the vertical plane was approximately 150. Fluorescence light was collected via a telecentric lens (Melles-Griot 59LGG925 base lens with a 59LGL428 attachment lens) that can operate at f/#2, has a magnification of 0.9, working distance of 257 mm and a depth of field of 81.5 mm. A bandpass filter (580 nm with a 50 nm bandwidth) was used in the emission pathway to reject the excitation light. Images showing FI were collected with a cooled CCD camera (Hamamatsu ORCA-ER). Where indicated, a Maestro imager was used (Cedars-Sinai Imaging Core Facility). ImageJ was used to calculate average fluorescence intensities of the overall region of each selected tissue.
# MDA-MB-435 tumor-bearing mice were imaged live after a single tail vein injection of HerDox, in order to visualize tumor-targeting ability in vivo.
# [3] = maximum FI, ˜3 h after injection
# [4] = single tail vein injection, 0.02 mg/kg Dox
molecule,measurement,setting,value
"COc1cccc2c1C(=O)c1c(O)c3c(c(O)c1C2=O)C[C@@](O)(C(=O)CO)C[C@@H]3O[C@H]1C[C@H](N)[C@H](O)[C@H](C)O1.Cl [Dox, Doxorubicin-HCl, reference compound]",delivery to U87 tumors higher compared to MDA-MB-435 tumors,"U87 human glioma tumors; mouse, in vivo, iv",200-300 fluorescence units per tissue
same,tumor growth,MDA-MB-435 tumors [1],low efficacy
same,tumor ablation compared with HerDox,MDA-MB-435 tumors [1]; 10× higher Dox dose (0.04 mg/kg),slightly less effective
same,cell death,U251 human glioma cells,75-80%
same,toxicity / survival,MDA-MB-435 (HER2+) cells,no preference
same,fluorescence in the lungs and skeletal muscle,MDA-MB-435 tumors [2]; harvested ˜3 h after injection,Lower levels of fluorescence
same,fluorescence in the kidneys,"MDA-MB-435 tumors [2]; mouse, in vivo",detectable fluorescence
same,fluorescence in the liver,"MDA-MB-435 tumors [2]; mouse, in vivo",detectable fluorescence
same,fluorescence in the tumors,"MDA-MB-435 tumors [2]; mouse, in vivo",detectable fluorescence
same,tumor accumulated Dox lower compared to HerDox,"MDA-MB-435 tumors [2]; mouse, in vivo",1000 fluorescence units
"HerDox: self-assembled nanoparticle of oligonucleotide duplex, doxorubicin and HerPBK10 (conjugate) LPPRLKEMKSQESAAGSKLVLRCETSSEYSSLRFKWFKNGNELNRKNKPQNIKIQKKPGKSELRINKASLADSGEYMCKVISKLGNDSASANITIVESNEIITGMPASTEGAYVSSESPIRISVSTEGANTSSSTSTSTTGTSHLVKCAEKEKTFCVNGGECFMVKDLSNPSRYLCKCQPGFTGARCTENVPMKVQNQEKAEELYMRRAAMYEEGPPPSYESVVSAAPVAAALGSPFDAPLDPPFVPPRYLRPTGGRNSIRYSELAPLFDTTRVYLVDNKSTDVASLNYQNDHSNFLTTVIQNNDYSPGEASTQTINLDDRSHWGGDLKTILHTNMPNVNEFMFTNKFKARVMVSRLPTKDNQVELKYEWVEFTLPEGNYSETMTIDLMNNAIVEHYLKVGRQNGVLESDIGVKFDTRNFRLGFDPVTGLVMPGVYTNEAFHPDIILLPGCGVDFTHSRLSNLLGIRKRQPFQEGFRITYDDLEGGNIPALLDVDAYQASLKDDTEQGGGGAGGSNSSGSGAEENSNAAAAAMQPVEDMNDHAIRGDTFATRAEEKRAEAEAAAEAAAPAAQPEVEKPQKKPVIKPLTEDSKKRSYNLISNDSTFTQYRSWYLAYNYGDPQTGIRSWTLLCTPDVTCGSEQVYWSLPDMMQDPVTFRSTRQISNFPVVGAELLPVHSKSFYNDQAVYSQLIRQFTSLTHVFNRFPENQILARPPAPTITTVSENVPALTDHGTLPLRNSIGGVQRVTITDARRRTCPYVYKALGIVSPRVLSSRTFKKKKKKKKKK",delivery to U87 tumors lower compared to MDA-MB-435 tumor-bearing mice,U87 human glioma tumors; i.v.,~50%
same,tumor growth,MDA-MB-435 tumors [1],ablation of tumor growth
same,dose for tumor ablation lower compared to untargeted doxorubicin,MDA-MB-435 tumors [1]; intravenous delivery,> 10 ×
same,cell death,U251 human glioma cells,96-99%
same,toxicity / survival,MDA-MB-435 (HER2+) cells,significant toxicity
same,"fluorescence in heart, spleen, lungs, and skeletal muscle",MDA-MB-435 tumors [2]; harvested ˜3 h after injection,did not exhibit any fluorescence; also recorded: no detectable fluorescence
same,fluorescence in the kidneys,MDA-MB-435 tumors [2]; harvested ˜3 h after injection,barely detectable
same,fluorescence in the liver,MDA-MB-435 tumors [2]; harvested ˜3 h after injection,substantially lower levels of fluorescence
same,fluorescence in the tumors,MDA-MB-435 tumors [2]; harvested ˜3 h after injection,intense fluorescence
same,kidney FI lower than tumors,MDA-MB-435 tumors [2]; [3],65%
same,liver FI lower than tumors,MDA-MB-435 tumors [2]; [3],45%
same,time of kidney entry,"MDA-MB-435 tumors [2]; pharmacokinetics, single i.v. injection",≤ 10 min
same,time detectable in the tumors after injection,MDA-MB-435 tumors [2]; [4],up to 100 min
same,time of accumulation at the tumors after injection,MDA-MB-435 tumors [2]; [4],≤ 20 min
same,tumor accumulation higher compared to normal tissue,"MDA-MB-435 tumors [2]; up to 24 h, heart, liver, muscle, spleen, lung, kidneys",500-1000 fluorescence units higher/tissue
